Results published in patent US20040208867A1, “Protein having active sulfate transporter activity and method for detecting canceration of tissue” (NATIONAL INSTITUTE OF ADVANCED INDUSTRIAL SCIENCE AND …, priority 2002, published 2004).

Key:
[1] = substrate: Nc1ncnc2c1ncn2[C@@H]1O[C@H](COP(=O)(O)OS(=O)(=O)O)[C@@H](OP(=O)(O)O)[C@H]1O; experiment: cells, lysate or membranes; settings: other: transport of PAPS (35S-labeled), P100 fraction, pH 7.5, PAPS concentration varied, FIG. 3, FIG. 4, 37.0 °C
[2] = transport activity of the P100 fraction for labeled nucleotide sugars instead of PAPS; type: biochemical, yeast strain W303a; settings: labeled nucleotide sugars instead of 35S-labeled PAPS (FIG. 2)
Protocol: Five minutes thereafter, 10 volumes of an ice-cooled reaction terminating solution (20 mM Tris-HCl buffer (pH 7.5) containing 0.25 M sucrose, 5 mM MgCl2 and 150 mM KCl) was added thereto, and the mixture was filtered through a nitrocellulose filter of 0.45 μm in pore size. This filter was washed with 10 ml of the iced-cooled reaction terminating solution, and the radioactivity of this filter was measured using a liquid scintillation counter (FIG. 1). Respective fractions prepared using a transformant of a yeast strain W303a transformed with YER352 GAPII alone were used as negative controls.

B1: human STP3 (GenBank accession No. XM_059770), protein having active sulfate (PAPS) transport activity, SEQ ID NO:2 (Homo sapiens) (protein)
chain: MDARWWAVVVLAAFPSLGAGGETPEAPPESWTQLWFFRFVVNAAGYASFMVPGYLLVQYFRRKNYLETGRGLCFPLVKACVFGNEPKASDEVPLAPRTEAAETTPMWQALKLLFCATGLQVSYLTWGVLQERVMTRSYGATATSPGERFTDSQFLVLMNRVLALIVAGLSCVLCKQPRHGAPMYRYSFASLSNVLSSWCQYEALKFVSFPTQVLAKASKVIPVMLMGKLVSRRSYEHWEYLTATLISIGVSMFLLSSGPEPRSSPATTLSGLILLAGYIAFDSFTSNWQDALFAYKMSSVQMMFGVNFFSCLFTVGSLLEQGALLEGTRFMGRHSEFAAHALLLSICSACGQLFIFYTIGQFGAAVFTIIMTLRQAFAILLSCLLYGHTVTVVGGLGVAVVFAALLLRVYARGRLKQRGKKAVPVESPVQKV
- Km [1]: 0.7 µM
- activity to specifically transport substances other than PAPS [2]: substantially has no activity
